This is an account of results in publication doi:10.1101/2020.06.30.179986 (bioRxiv, 2020).

For data set [1], the target named is T1, Hfp N-terminal RRMs (half pint, PUF60 homolog) (UniProt Q8T6B9 110-326).
T1 sequence: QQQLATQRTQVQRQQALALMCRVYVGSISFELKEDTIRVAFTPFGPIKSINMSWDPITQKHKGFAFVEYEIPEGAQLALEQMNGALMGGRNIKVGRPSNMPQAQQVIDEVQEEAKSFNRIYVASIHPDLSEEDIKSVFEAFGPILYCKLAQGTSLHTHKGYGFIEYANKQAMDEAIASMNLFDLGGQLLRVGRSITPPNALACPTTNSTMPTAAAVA
As to the kind of experiment: EMSA.

Data set [2] concerns the molecule itself. In words: SDS-PAGE and Western blot.

B1: Negative control scramble (ssRNA)
RNA: UACGUACGUA
With B1, the binding result in data set [1] was “no binding”.

B2: act57B PT (ssRNA)
RNA: UCUUCCCCUC
For B2, in data set [1], the binding result is reported as “binds”.

B3: recombinant protein composed of the two N-terminal RNA Recognition Motifs (RRM) of Half pint (Hfp) (domain or fragment, Drosophila, UniProt Q8T6B9 110-326, looked up)
chain: T1 sequence
Usually stoichiometry N stands for a count of units in the complex or per binding partner. As for B3, in data set [2], the “stoichiometry N” value was 2.

B4: Positive control (Drosophila consensus polypyrimidine-rich sequence) (ssRNA)
RNA: UUUUUCUCUU
In the case of B4, in data set [1], the binding result is “binds”.
